What was measured:
[1] = biological target: T1, Radiolabeled SDF-1α (Perkin-Elmer) (UniProt P48061-2 22-89); assay: radioligand binding: fixed radiolabeled SDF-1α with CXCR3 lipoparticles, filtration, gamma counting
T1 construct: also called radioligand

[2] = biological target: T2, SDF-1 (unlabeled chemokine, 8 kDa) (UniProt P48061-2 22-89); assay: radioligand competition on CXCR4 lipoparticles: increasing cold SDF-1 against 0.1 nM radiolabeled SDF-1α, 1 h at room temperature, filtration through GF/C filters, gamma counting [box at the upper right]
T2 construct: also called 8 kDa natural ligand (SDF-1); cold ligand (Peprotech)

[3] = biological target: T3, Protein A (ProA) beads bearing no antibody (Staphylococcal, UniProt P38507 37-477); assay: fluorescence microscopy of Protein A beads without antibody, probed with fluorescent lipoparticles containing CXCR4
T3 construct: also called no antibody control

Binder | binding result [1] | Kd [2] [nM] | binding result [3]
CXCR3 incorporated into lipoparticles (receptor, UniProt P49682 1-368, looked up, whole, on cells) MVLEVSDHQVLNDAEVAALLENFSSSYDYGENESDSCCTSPPCPQDFSLNFDRAFLPALYSLLFLLGLLGNGAVAAVLLSRRTALSSTDTFLLHLAVADTLLVLTLPLWAVDAAVQWVFGSGLCKVAGALFNINFYAGALLLACISFDRYLNIVHATQLYRRGPPARVTLTCLAVWGLCLLFALPDFIFLSAHHDERLNATHCQYNFPQVGRTALRVLQLVAGFLLPLLVMAYCYAHILAVLLVSRGQRRLRAMRLVVVVVVAFALCWTPYHLVVLVDILMDLGALARNCGRESRVDVAKSVTSGLGYMHCCLNPLLYAFVGVKFRERMWMLLLRLGCPNQRGLQRQPSSSRRDSSWSETSEASYSGL | no binding (tested: about 1.25 ug lipoparticles) | – | –
CXCR4 (chemokine receptor, GPCR) incorporated into lipoparticles (receptor, UniProt P61073 1-352, looked up, whole, on cells; also called CXCR4-lipoparticles; CXCR4-containing lipoparticles) MEGISIYTSDNYTEEMGSGDYDSMKEPCFREENANFNKIFLPTIYSIIFLTGIVGNGLVILVMGYQKKLRSMTDKYRLHLSVADLLFVITLPFWAVDAVANWYFGNFLCKAVHVIYTVNLYSSVLILAFISLDRYLAIVHATNSQRPRKLLAEKVVYVGVWIPALLLTIPDFIFANVSEADDRYICDRFYPNDLWVVVFQFQHIMVGLILPGIVILSCYCIIISKLSHSKGHQKRKALKTTVILILAFFACWLPYYIGISIDSFILLEIIKQGCEFENTVHKWISITEALAFFHCCLNPILYAFLGAKFKTSAQHALTSVSRGSSLKILSKGKRGGHSSVSTESESSSFHSS | – | 8.53 | no binding
